Laboratory results reported in patent US20150165025A1 (ONO PHARMACEUTICAL, published 2015).
Numbering of substitutions follows the chain as printed. Values belong to the binder of their own block, whether it stands above or below them.

Assays:
[1] = target: T1, purified recombinant human PD-1 fusion protein (human, UniProt Q15116 25-170); assay: Biacore SPR; PD-1 fusion protein on CM5 chip, antibody at 267 nM
T1 construct: extracellular domain; Made in CHO cells; amine-coupled to a CM5 chip for Biacore
Experimental: Anti-PD-1 antibodies were characterized for affinities and binding kinetics by Biacore analysis (Biacore AB, Uppsala, Sweden). Purified recombinant human PD-1 fusion protein was covalently linked to a CM5 chip (carboxy methyl dextran coated chip) via primary amines, using standard amine coupling chemistry and kit provided by Biacore. Binding was measured by flowing the antibodies in HBS EP buffer (provided by Biacore AB) at a concentration of 267 nM at a low rate of 50 μl/min. The antigen-antibody association kinetics was followed for 3 minutes and the dissociation kinetics was followed for 7 minutes. The association and dissociation curves were fit to a 1:1 Langmuir binding model using BIAevaluation software (Biacore AB). To minimize the effects of avidity in the estimation of the binding constants, only the initial segment of data corresponding to association and dissociation phases were used for fitting.

[2] = target: T2, CD28 fusion protein (R&D Biosystems) (human, UniProt P10747 19-152); assay: ELISA on CD28 fusion protein, goat anti-human IgG (kappa) HRP
Experimental: (§1) A comparison of the binding of anti-PD-1 antibodies to CD28 family members was performed by standard ELISA using four different CD28 family members to examine the specificity of binding for PD-1.
(§2) Standard ELISA procedures were performed. The anti-PD-1 human monoclonal antibodies were added at a concentration of 20 μg/ml. Goat-anti-human IgG (kappa chain-specific) polyclonal antibody conjugated with horseradish peroxidase (HRP) was used as secondary antibody.

[3] = target: T3, ICOS fusion protein (R&D Biosystems) (human, UniProt Q9Y6W8 21-141); assay: ELISA on ICOS fusion protein, goat anti-human IgG (kappa) HRP
T3 sequence (looked up): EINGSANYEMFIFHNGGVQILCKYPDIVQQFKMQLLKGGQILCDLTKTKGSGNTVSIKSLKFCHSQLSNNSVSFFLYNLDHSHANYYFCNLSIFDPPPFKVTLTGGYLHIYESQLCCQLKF
Experimental: as §1, §2

[4] = target: T4, CTLA-4 fusion protein (R&D Biosystems) (human, UniProt P16410 37-162); assay: ELISA on CTLA-4 fusion protein, goat anti-human IgG (kappa) HRP
T4 sequence (looked up): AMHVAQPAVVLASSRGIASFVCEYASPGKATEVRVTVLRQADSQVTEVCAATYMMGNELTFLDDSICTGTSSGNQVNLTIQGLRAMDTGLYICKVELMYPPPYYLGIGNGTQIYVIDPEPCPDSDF
Experimental: as §1, §2

[5] = target: T5, human PD-1 expressed at the cell surface (human, UniProt Q15116 25-288); assay: flow cytometry on activated human T cells, FITC-labeled anti-human IgG, MFI
T5 construct: whole, on cells; also called hPD-1; CHO hPD-1 cells
Experimental: (§3) Activated human T-cells, monkey peripheral blood mononuclear cells (PBMC), and CHO cells transfected with PD-1 were each tested for antibody binding. Human T cells and cynomolgous PBMC were activated by […] to induce PD-1 expression on T cells prior to binding with a human anti-PD-1 monoclonal antibody. […] The cells were washed and binding was detected with a FITC-labeled anti-human IgG Ab. Flow cytometric analyses were performed using a FACScan flow cytometry (Becton Dickinson, San Jose, Calif.).

[6] = target: T6, cynomolgus monkey cell surface PD-1 (cynomolgus monkey, UniProt B0LAJ3 25-288); assay: flow cytometry on activated cynomolgus monkey PBMC, FITC-labeled anti-human IgG, MFI
T6 construct: also called cynomolgous monkey PD-1
Experimental: as §3

[7] = target: T5, human PD-1 expressed at the cell surface; assay: flow cytometry on CHO cells transfected with human PD-1, FITC-labeled anti-human IgG, MFI
Experimental: as §3

[8] = target: T5, human PD-1 expressed at the cell surface; assay: flow cytometry blocking assay on CHO/hPD-1 cells: antibody first, then FITC-labeled PD-L1 fusion protein as the blocked ligand, MFI
Experimental: (§4) PD-1 expressing CHO cells were suspended in FACS buffer (PBS with 4% fetal calf serum). […] Flow cytometric analyses were performed using a FACScan flowcytometer (Becton Dickinson, San Jose, Calif.).

[9] = target: T3, ICOS fusion protein (R&D Biosystems); assay: standard ELISA on fusion proteins
Experimental: as §1, §2

[10] = target: T4, CTLA-4 fusion protein (R&D Biosystems); assay: standard ELISA on fusion proteins
Experimental: as §1, §2

[11] = target: T2, CD28 fusion protein (R&D Biosystems); assay: standard ELISA on fusion proteins
Experimental: as §1, §2

[12] = target: T5, human PD-1 expressed at the cell surface; assay: flow cytometry blocking assay on CHO/PD-1 cells: antibody first, then FITC-labeled PD-L2 fusion protein as the blocked ligand, MFI
Experimental: as §4

T1 sequence (Q15116 25-170): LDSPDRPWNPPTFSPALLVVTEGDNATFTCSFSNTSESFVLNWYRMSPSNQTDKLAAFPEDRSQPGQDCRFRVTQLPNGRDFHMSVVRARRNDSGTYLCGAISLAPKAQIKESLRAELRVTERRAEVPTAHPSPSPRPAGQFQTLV
T5 sequence (Q15116 25-288): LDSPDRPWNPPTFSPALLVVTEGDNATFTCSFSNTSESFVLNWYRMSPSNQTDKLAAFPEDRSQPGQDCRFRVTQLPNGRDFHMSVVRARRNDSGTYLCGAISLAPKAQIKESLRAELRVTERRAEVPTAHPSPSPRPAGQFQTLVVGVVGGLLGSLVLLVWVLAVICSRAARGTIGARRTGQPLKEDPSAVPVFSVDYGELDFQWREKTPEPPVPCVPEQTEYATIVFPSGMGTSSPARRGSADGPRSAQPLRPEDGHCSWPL
T2 sequence (P10747 19-152): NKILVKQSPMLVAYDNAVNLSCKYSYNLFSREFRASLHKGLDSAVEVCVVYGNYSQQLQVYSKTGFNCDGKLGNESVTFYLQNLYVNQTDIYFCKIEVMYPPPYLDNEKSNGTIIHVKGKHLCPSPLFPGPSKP
T6 sequence (B0LAJ3 entry or part of it limits assumed): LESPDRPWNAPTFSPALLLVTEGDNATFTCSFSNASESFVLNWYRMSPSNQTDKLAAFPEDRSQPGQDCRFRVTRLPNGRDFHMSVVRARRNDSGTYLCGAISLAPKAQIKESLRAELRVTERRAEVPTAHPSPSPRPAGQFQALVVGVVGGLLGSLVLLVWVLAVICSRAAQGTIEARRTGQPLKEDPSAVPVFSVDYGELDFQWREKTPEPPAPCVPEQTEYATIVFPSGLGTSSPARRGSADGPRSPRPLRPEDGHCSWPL

Kd [1]: 0.16 nM | koff [1]: 4.5e-05 s⁻¹ | kon [1]: 256000 M⁻¹ s⁻¹ | binding result [2]: no binding (tested: 20 µg/ml) | binding result [3]: no binding (tested: 20 µg/ml) | binding result [4]: no binding (tested: 20 µg/ml) | EC50 (read off the curve) [5]: ~2 nM | EC50 (read off the curve) [6]: ~3 nM | EC50 (read off the curve) [7]: ~10 nM
B1: anti-PD-1 human monoclonal antibody 17D8 (antibody, V domains shown)
VH: QVQLVESGGDVVQPGGSLRLSCAASGVAFSNYGMHWVRQAPGKGLEWVAVIWYDGSNKYYADSVKGRFTISRDNSKNMLYLQMNSLRAEDTAMYYCARNDDYWGQGTLVTVSS
VL: EIVLTQSPATLSLSPGERATLSCRASQSVSSYLAWYQQKPGQAPRLIIYDASNRATGIPARFSGSGSGTDFTLTISSLEPEDFAVYYCQQRSNWPLTFGGGTKVEIK
notes: Fully human IgG with kappa light chain from a hybridoma (HuMab/KM mice)

binding result [9]: no binding (tested: 20 µg/ml) | binding result [10]: no binding (tested: 20 µg/ml) | binding result [11]: no binding (tested: 20 µg/ml)
B5: anti-PD-1 human monoclonal antibody 7D3 (antibody, V domains shown)
VH: QVQLVESGGGVVQPGRSLRLSCTTSGITFSSYGFHWVRQAPGKGLEWVAVIWYDGSKKYYADSVKGRFTLSRDDSKNTLYLQMNSLRAEDTAVYYCVTGDDYWGQGTLVTVSS
VL: B1 VL with I47L
notes: Fully human IgG with kappa light chain from a hybridoma

binding result [9]: no binding (tested: 20 µg/ml) | binding result [10]: no binding (tested: 20 µg/ml) | binding result [11]: no binding (tested: 20 µg/ml)
B7: anti-PD-1 human monoclonal antibody 5F4 (antibody, V domains shown)
VH: QLQLQESGPGLVKPSETLSLTCSVSGGSLSRSSYFWGWIRQPPGKGLEWIASIFYSGETYFNPSLKSRVTISVDTSRNQFSLKLSSVTAADTAVYYCARDYDILTGDEDYWGQGTLVTVSS
VL: DIQMTQSPSSLSASVGDRVTITCRASQGISSWLAWYQQKPEKAPKSLIYAASSLQSGVPSRFSGSGSGTDFTLTISSLQPEDFATYYCQQYYSYPRTFGQGTKVEIK
notes: as for B5

Continued, binder first:

B2: anti-PD-1 human monoclonal antibody 2D3 (antibody, V domains shown)
VH: B5 VH with G10D, T23A, T24A, I27L, S30T, S31N, L70I, D74N, S85N, V97A
VL: B1 VL with I47L, A51T
notes: as for B5
Kd [1]: 1.2 nM | koff [1]: 0.000452 s⁻¹ | kon [1]: 377000 M⁻¹ s⁻¹ | binding result [2]: no binding (tested: 20 µg/ml) | binding result [3]: no binding (tested: 20 µg/ml) | binding result [4]: no binding (tested: 20 µg/ml) | EC50 (read off the curve) [5]: ~0.7 nM | EC50 (read off the curve) [6]: ~1 nM

B3: anti-PD-1 human monoclonal antibody 4H1 (antibody, V domains shown)
VH: QVYLVESGGGVVQPGRSLRLSCAASGFTFSNYGMHWVRQAPGKGLEWVALIWYDGSNKYYADSVKGRFTISRDNSKNTLYLQMTSLRVEDTAVYYCASNVDHWGQGTLVTVSS
VL: B1 VL with I47L, R91S, L96R, G100Q
notes: as for B5
binding result [2]: no binding (tested: 20 µg/ml) | binding result [3]: no binding (tested: 20 µg/ml) | binding result [4]: no binding (tested: 20 µg/ml) | EC50 (read off the curve) [5]: ~0.6 nM | EC50 (read off the curve) [6]: ~0.9 nM | EC50 (read off the curve) [7]: ~3 nM | IC50 (read off the curve) [8]: ~2 nM

B4: anti-PD-1 human monoclonal antibody 5C4 (antibody, V domains shown)
VH: QVQLVESGGGVVQPGRSLRLDCKASGITFSNSGMHWVRQAPGKGLEWVAVIWYDGSKRYYADSVKGRFTISRDNSKNTLFLQMNSLRAEDTAVYYCATNDDYWGQGTLVTVSS
VL: B1 VL with I47L, R91S, L96R, G100Q
notes: Fully human IgG with kappa light chain from a hybridoma; also called 5C4-IgG1; 5C4-IgG4
binding result [3]: no binding (tested: 20 µg/ml) | binding result [4]: no binding (tested: 20 µg/ml) | EC50 (read off the curve) [6]: ~1 nM

B6: anti-PD-1 human monoclonal antibody 4A11 (antibody, V domains shown)
VH: B7 VH with S23T, Y34F, A51G, F54Y, E58S, F61Y, R77K, A98V
VL: B7 VL with T20S, S53N, Q55R
notes: as for B5
Kd [1]: 0.13 nM | koff [1]: 9.9e-06 s⁻¹ | kon [1]: 76000 M⁻¹ s⁻¹ | binding result [2]: no binding (tested: 20 µg/ml) | binding result [3]: no binding (tested: 20 µg/ml) | binding result [4]: no binding (tested: 20 µg/ml) | EC50 (read off the curve) [7]: ~10 nM | IC50 (read off the curve) [12]: ~8 nM
